Patent publication US20060239990A1, “Protein Arginine N-Methyltransferase 2 (PRMT-2)” (priority 2003, published 2006)

How the values were obtained:
p50/p65 complex = assay: NF-κB DNA binding assay (EMSA); assay type: biochemical, human; conditions: 293 cells cotransfected with p50 and p65 expression vectors
Description: DNA binding assay. Electrophoretic mobility shift assays (EMSAs) were conducted on 10 μg of nuclear extract protein from 293 cells transiently transfected with pRSV p50/p65 expression constructs and pVR1012 PRMT-2-A/PRMT-2-N expression constructs. A modified Dignam procedure (Dignam et al. Nucleic Acids Res. 11, 1475-1489 (1983)) was used to prepare nuclear extracts from 293 cells. Perkins, N. D. et al. Science 275, 523-527 (1997). NF-KB DNA binding was assayed using a double-stranded 32P-labeled κB probe (Geneka Biotechnology). DNA binding assays were performed as described previously. Perkins et al. Science 275, 523-527 (1997). Supershifting was done using NF-κB p65 (C-20) and NF-κB p50 (H-119) (Santa Cruz). GST-PRMT-2-A fusion proteins were expressed in BL21 (DE3) cells and extracts were prepared as described previously. Smith, D. B. & Johnson, K. S. Gene 67, 31-40 (1988).

NF-κB [1] = assay: κB luciferase reporter in MEFs; assay type: cell-based, mouse; conditions: PRMT2−/− MEFs complemented by transfection
Description: Cell culture, transfection, and reporter gene assays. The E1A-transformed, human kidney cell line, 293, and NIH-3T3 cells were maintained in Dulbecco's Modified Eagle Medium (DMEM) supplemented with 10% fetal calf serum and penicillin-streptomycin at 37° C. in 5% carbon dioxide in tissue culture grade Petri dishes. PRMT-2−/− mouse embryo fibroblasts (MEFs) and wild type MEFs were prepared from day 13.5 embryos and maintained in DMEM supplemented with 10% fetal calf serum. MEFs at passage 4 were used in this experiment. Lipofectamine Plus™ reagent (Boehringer Mannheim) was used to transfect both 293 and NIH-3T3 cells according to directions from the manufacturer. […] TNF-α stimulation of cells was done using recombinant TNF-α (200 U/ml) for 12 hours. Transfected cells were harvested at 36 hours, and CAT activity was assayed on 10 to 100 μg of protein from whole cell extracts. CAT assays were performed essentially as described in Leung, K. & Nabel, G. J. Nature 333, 776-778 (1988). […] Luciferase activity was analyzed by Dual-Luciferase Reporter Assay System (Promega).
To determine whether similar effects would be observed in non-transformed cell lines with physiological levels of protein, NF-κB inducibility was analyzed in mouse embryonic fibroblasts (MEFs) derived from PRMT2 null mice (T. Y. et al., manuscript in preparation). […]

NF-κB [2] = assay: NF-κB luciferase reporter assay in 293T cells; assay type: cell-based, human
Description: Cell culture, transfection, and reporter gene assays. The E1A-transformed, human kidney cell line, 293, and NIH-3T3 cells were maintained in Dulbecco's Modified Eagle Medium (DMEM) supplemented with 10% fetal calf serum and penicillin-streptomycin at 37° C. in 5% carbon dioxide in tissue culture grade Petri dishes. PRMT-2−/− mouse embryo fibroblasts (MEFs) and wild type MEFs were prepared from day 13.5 embryos and maintained in DMEM supplemented with 10% fetal calf serum. MEFs at passage 4 were used in this experiment. Lipofectamine Plus™ reagent (Boehringer Mannheim) was used to transfect both 293 and NIH-3T3 cells according to directions from the manufacturer. […] TNF-α stimulation of cells was done using recombinant TNF-α (200 U/ml) for 12 hours. […] CAT assays were performed essentially as described in Leung, K. & Nabel, G. J. Nature 333, 776-778 (1988). To analyze the κB-reporter activity in MEFs, cells were transfected with the reporter (2×kB-Luc) and PRL-TK vector (Promega) using FuGENE6 transfection reagent (Roche). Luciferase activity was analyzed by Dual-Luciferase Reporter Assay System (Promega).
To map the domains responsible for inhibition of HIV transcription, truncation and point mutations were made in PRMT2 (FIG. 1D) and co-transfected with an NF-κB reporter in 293T cells. PRMT2-A represents an alternatively spliced form of PRMT2 found in the expressed sequence tag (EST) database. This isoform contains the first 218 amino acids of PRMT2 and differs from full length PRMT2 by the absence of the less conserved COOH-terminal domain. PRMT2-N was generated by introducing a stop codon after amino acid 95 before the putative Ado-Met domain of PRMT2. To analyze the role of the Ado-Met domain further, another mutant, PRMT2-4A, was prepared in which 141ILDV144 (SEQ ID NO:5) in this region were altered to four consecutive alanines to compare the effects of point mutations in this highly conserved region.
The mechanism and site of action of PRMT2 in the NF-κB signaling pathway was further defined by co-transfection of PRMT2 and its mutants with different regulators in this pathway with an NF-κB reporter in 293T cells (FIG. 2D).

MHC Class I = assay: Flow cytometry of endogenous MHC Class I in 293T cells; assay type: cell-based, human; conditions: 48 hrs after transfection
Description: 293 cells were transfected with 1 μg of the indicated reporter plasmids and 5 μg of either PRMT2-A or pVR1012 plasmids. Cells were harvested 36 hours post-transfection, and CAT assays were performed. Data shown are the mean (±SEM)-fold inhibition, in the presence of PRMT2-A, over a vector control of 3 independent experiments. […] 293T human embryonic kidney cells were transfected with HIV-luciferase reporter (WT) or ΔκB-luciferase reporter (ΔκB) and PRMT2 or control vector plasmid. 24 hrs after transfection, cells were treated with vehicle (left panel) or with TNF-α (20 ng/ml; middle panel) or PMA (10 ng/ml; right panel) as indicated, and luciferase activity was measured 48 hrs post transfection. […] 293T cells were transfected with HA-PRMT2 or HA-PRMT2-N. Transfected cells were detached after 48 hrs and analyzed by flow cytometry for MHC Class I and CD9 in HA-positive cells in PRMT2 (FIG. 2C) or PRMT2-N (FIG. 2D) transfected cells. […] 293T cells were transfected with plasmids as indicated where IKK2 or p65 was added as shown, and the κB luciferase reporter gene was used to monitor NF-κB activity 48 hrs after transfection. Values are expressed as fold stimulation compared to the control vector.

B1: PRMT2: human PRMT-2 polypeptide, SEQ ID NO:2, expressed from pVR1012 vector with HA-tag (protein, listed as Homo sapiens)
chain: MATSGDCPRSESQGEEPAECSEAGLLQEGVQPEEFVAIADYAATDETQLSFLRGEKILILRQTTADWWWGERAGCCGYIPANHVGKHVDEYDPEDTWQDEEYFGSYGTLKLHLEMLADQPRTTKYHSVILQNKESLTDKVILDVGCGTGIISLFCAHYARPRAVYAVEASEMAQHTGQLVLQNGFADIITVYQQKVEDVVLPEKVDVLVSEWMGTCLLFEFMIESILYARDAWLKEDGVIWPTMAALHLVPCSADKDYRSKVLFWDNAYEFNLSALKSLAVKEFFSKPKYNHILKPEDCLSEPCTILQLDMRTVQISDLETLRGELRFDIRKAGTLHGFTAWFSVHFQSLQEGQPPQVLSTGPFHPTTHWKQTLFMMDDPVPVHTGDVVTGSVVLQRNPVWRRHMSVALSWAVTSRQDPTSQKVGEKVFPIWR
modifications: HA tag
In the case of B1, the “NF-κB DNA binding in nuclear extracts of transfected cells” value (p50/p65 complex) is reported as “inhibited DNA binding of the p50/p65 complex in a dose-dependent manner”, the “NF-κB induction by TNF-α” value (NF-κB [1]) is reported as “completely abolished NF-κB induction by TNF-α” and the NF-κB activity (NF-κB [2]; 1 μg expression construct, 100 ng 5 κB luciferase reporter) is reported as “inhibited NF-κB activity”. For the same molecule, the “IKK2- and p65-induced NF-κB activity” value (NF-κB [2]; κB luciferase reporter, 48 hrs) was “inhibited both IKK2- and p65-induced NF-κB activity” and the “endogenous MHC Class I cell surface expression” value (MHC Class I) was “decreased endogenous MHC Class I cell surface expression”.
